± gives the standard deviation of the averaged measurements.
System: ATP
Test: switch fluorescence ratio, 500 uM ATP over buffer (Cy3 cluster intensity, sum of 5 cycles each) (fold (ratio)); higher = stronger signal-on switching upon ATP binding; sequences stand for … in TCGTCGGCAGCGTCAGATGTGTATAAGAGACAGTTTTTTTTTTTTTTTTTTTTTTTTT…TC
Details: aptamer strand: ATP DNA aptamer (quencher-CACCTGGGGGAGTATTGCGGAGGAAGG + anchor), 100 nM annealed; ATP concentration: 500 uM
How it was run: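 The fluorescence ratio divides summed target-cycle Cy3 intensity by summed buffer-cycle Cy3 intensity for each cluster and is averaged per switch-domain sequence. Cy3-labelled switching-strand clusters on a modified Illumina MiSeq flow-cell were annealed to 100 nM quencher-labelled ATP aptamer, then imaged in selection buffer and again after 15 min with 500 uM ATP at 22 °C. Five such cycles were run, with NaOH stripping and re-annealing between them, and clusters outside 100-1000 RFU were excluded.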
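Note: ATP exposure 15 min at 22 °C before imaging.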

Sequence	switch fluorescence ratio
GTGGTAAGAT	0.991 ± 0.037
GTGGTAAGCG	0.995 ± 0.065
GTGGTACGTA	1.02 ± 0.06
GTGGTACTGG	0.9683 ± 0.0066
GTGGTAGGCG	0.975 ± 0.014
GTGGTAGGGT	1.02 ± 0.02
GTGGTATCCG	0.973 ± 0.058
GTGGTATCGG	0.989 ± 0.029
GTGGTATGTC	1.01 ± 0.07
GTGGTCGAGT	0.989 ± 0.01
GTGGTCGGCA	0.996 ± 0.011
GTGGTCTTGA	0.981 ± 0.028
GTGGTGGCAG	0.979 ± 0.015
GTGGTTATGC	1.02 ± 0.033
GTGGTTCTAT	0.996 ± 0.026
GTGGTTGGGA	0.992 ± 0.029
GTGGTTTATA	1.01 ± 0.021
GTGTAACAGA	1 ± 0.013
GTGTAAGAGA	1.006 ± 0.0081
GTGTAAGCAG	0.995 ± 0.01
GTGTAAGGTT	0.9935 ± 0.0066
GTGTAATAAG	0.99 ± 0.031
GTGTAATAGG	0.9713 ± 0.0056
GTGTAATAGT	0.996 ± 0.021
GTGTAATTTG	0.994 ± 0.036
GTGTAATTTT	0.993 ± 0.032

Sequence	switch fluorescence ratio
GTGTAGAAAT	0.9834 ± 0.0068
GTGTATAGGC	1.09 ± 0.038
GTGTATAGTG	0.982 ± 0.018
GTGTATCGGT	0.994 ± 0.023
GTGTCAGGGG	1.04 ± 0.07
GTGTCCCCTG	0.981 ± 0.04
GTGTCCTGTA	0.998 ± 0.072
GTGTCGAAGG	0.976 ± 0.051
GTGTCGTGGC	1.012 ± 0.0029
GTGTGAAAGG	1 ± 0.013
GTGTGAGTGT	0.973 ± 0.016
GTGTGGGGGC	1.008 ± 0.0072
GTGTGGGGGG	1.02 ± 0.075
GTGTGGTATA	0.982 ± 0.012
GTGTGGTGCA	0.9802 ± 0.0045
GTGTGTGGAC	1.01 ± 0.026
GTGTGTTCGC	0.9546 ± 0.0069
GTGTTAATTA	0.989 ± 0.021
GTGTTACGGG	0.985 ± 0.016
GTGTTACTGT	0.959 ± 0.026
GTGTTAGCTG	1.02 ± 0.028
GTGTTAGGGC	0.9919 ± 0.0057
GTGTTAGTAT	1.02 ± 0.031
GTGTTAGTTA	1.01 ± 0.011
GTGTTATCTG	0.978 ± 0.012
GTGTTATGAG	0.995 ± 0.067

Sequence	switch fluorescence ratio
GTGTTCTAGT	0.955 ± 0.012
GTGTTGCGGC	0.986 ± 0.016
GTGTTGGAGG	0.996 ± 0.017
GTGTTGTTGG	0.986 ± 0.019
GTGTTTCCTG	0.994 ± 0.028
GTGTTTCCTT	1.02 ± 0.036
GTGTTTGACA	0.9604 ± 0.005
GTGTTTGTTC	0.968 ± 0.013
GTGTTTTACG	1.01 ± 0.021
GTTAAAACTT	1.005 ± 0.0097
GTTAAAGGTA	0.962 ± 0.019
GTTAAATGTG	0.972 ± 0.024
GTTAAATTTT	0.986 ± 0.024
GTTAACGTGG	0.99 ± 0.019
GTTAACTGAG	1.03 ± 0.041
GTTAAGGTTT	1.03 ± 0.063
GTTAATGGAA	0.986 ± 0.039
GTTACAATGG	0.991 ± 0.038
GTTACATAGC	1.08 ± 0.014
GTTACATGCG	0.976 ± 0.02
GTTACGGCAA	1.27 ± 0.064
GTTACTAATG	0.9996 ± 0.0029
GTTACTGGAC	1.12 ± 0.14
GTTAGAGCCG	1.09 ± 0.062
GTTAGATACG	1 ± 0.028
GTTAGATGGG	1 ± 0.034

Sequence	switch fluorescence ratio
GTTAGATGGT	0.9851 ± 0.0037
GTTAGGCCAG	0.986 ± 0.041
GTTAGGGGCG	0.982 ± 0.013
GTTAGGGGGT	0.994 ± 0.027
GTTAGGTAGG	0.9818 ± 0.005
GTTAGTACTG	0.96042 ± 0.00063
GTTATAAAAA	1.01 ± 0.07
GTTATACGTA	1.03 ± 0.019
GTTATAGGAG	0.99 ± 0.019
GTTATAGGGG	0.99 ± 0.018
GTTATAGGTG	1.06 ± 0.065
GTTATAGTGG	0.981 ± 0.01
GTTATGAGTT	0.975 ± 0.029
GTTATGCTCT	1.01 ± 0.014
GTTATGGGGG	1.04 ± 0.013
GTTATGGGTG	0.983 ± 0.029
GTTATTACGT	1.03 ± 0.021
GTTATTAGCT	0.992 ± 0.013
GTTATTATTC	0.9922 ± 0.0057
GTTATTATTG	1.02 ± 0.013
GTTATTGGAG	0.999 ± 0.026
GTTATTGGGA	0.99 ± 0.051
GTTATTGTTT	0.983 ± 0.041
GTTATTTACT	1.024 ± 0.0033
GTTATTTAGG	0.9966 ± 0.0084
GTTCAAAAGG	0.919 ± 0.028

Sequence	switch fluorescence ratio
GTTCAAAGGT	0.96 ± 0.032
GTTCAAATCA	0.997 ± 0.047
GTTCAATTGG	0.98 ± 0.021
GTTCACGTAA	1.16 ± 0.15
GTTCACTTTT	1.02 ± 0.036
GTTCAGGGCT	1.01 ± 0.02
GTTCGAGGGC	1.046 ± 0.002
GTTCGCATTG	1.08 ± 0.024
GTTCGCGGTG	0.998 ± 0.017
GTTCTCAGTG	1.01 ± 0.03
GTTCTGCAAT	3.97 ± 0.11
GTTCTGGGAG	1 ± 0.012
GTTCTTGCGG	0.959 ± 0.022
GTTCTTTGG	0.9949 ± 0.0077
GTTGAAAAAA	1.31 ± 0.73
GTTGAAAAGG	0.971 ± 0.051
GTTGAAGGGA	0.983 ± 0.018
GTTGAAGTTG	0.968 ± 0.02
GTTGACAGG	1.025 ± 0.0066
GTTGACCGGT	1 ± 0.016
GTTGACGGGG	1.01 ± 0.021
GTTGACGGTG	0.982 ± 0.039
GTTGACTTGA	1.02 ± 0.03
GTTGAGGGA	1.04 ± 0.079
GTTGAGGTCG	0.995 ± 0.022
GTTGAGTATA	1.01 ± 0.033

Sequence	switch fluorescence ratio
GTTGATGTAT	0.987 ± 0.021
GTTGCACTTT	0.983 ± 0.052
GTTGCATGGG	0.963 ± 0.012
GTTGCCGGTT	1.026 ± 0.008
GTTGCCTTGC	1.06 ± 0.011
GTTGCGGAAT	1.03 ± 0.023
GTTGCGGGTT	1.01 ± 0.039
GTTGCGTTTT	0.9852 ± 0.0095
GTTGCTAGGT	0.9984 ± 0.0044
GTTGGAATGA	1 ± 0.037
GTTGGACGCT	0.986 ± 0.029
GTTGGAGAGG	0.974 ± 0.087
GTTGGAGATT	0.961 ± 0.042
GTTGGAGGGT	0.977 ± 0.047
GTTGGAGTGC	0.9817 ± 0.0017
GTTGGCTTTG	0.997 ± 0.048
GTTGGGACGA	1 ± 0.015
GTTGGGAGGA	0.989 ± 0.018
GTTGGGAGTC	1.01 ± 0.012
GTTGGGATGT	0.996 ± 0.015
GTTGGGCACT	0.992 ± 0.033
GTTGGGCCGG	0.987 ± 0.021
GTTGGGGAGG	1.01 ± 0.035
